Drawing on the supplement of paper PMC10126150, this text covers switch fluorescence ratio for 120 sequences.

± gives the standard deviation of the averaged measurements.

The series relates to ATP. Kind of series: switch fluorescence ratio, 500 uM ATP over buffer (Cy3 cluster intensity, sum of 5 cycles each) (fold (ratio)); higher = stronger signal-on switching upon ATP binding; sequences stand for … in TCGTCGGCAGCGTCAGATGTGTATAAGAGACAGTTTTTTTTTTTTTTTTTTTTTTTTT…TC. Particulars: aptamer strand: ATP DNA aptamer (quencher-CACCTGGGGGAGTATTGCGGAGGAAGG + anchor), 100 nM annealed; ATP concentration: 500 uM. The method in brief: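 The fluorescence ratio divides summed target-cycle Cy3 intensity by summed buffer-cycle Cy3 intensity for each cluster and is averaged per switch-domain sequence. Cy3-labelled switching-strand clusters on a modified Illumina MiSeq flow-cell were annealed to 100 nM quencher-labelled ATP aptamer, then imaged in selection buffer and again after 15 min with 500 uM ATP at 22 °C. Five such cycles were run, with NaOH stripping and re-annealing between them, and clusters outside 100-1000 RFU were excluded.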
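Note: ATP exposure 15 min at 22 °C before imaging.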

Turning to AAGGGAAGTG, the switch fluorescence ratio is 0.982 ± 0.069.
In the case of ATTGTTTTGC it was 1.009 ± 0.0025; in that of ATACAAGGCA, 0.956 ± 0.053.
As for GTTGGCAGGC, the switch fluorescence ratio stood at 1.03 ± 0.028.
Regarding GAGTGGGAGG, the switch fluorescence ratio turned out to be 1.02 ± 0.026.
Next, TACATATGGT: 1.03 ± 0.0018.
As for ATTTTTTTCC, the switch fluorescence ratio was 1.38 ± 0.57.
In the case of AGTTTTTGCT, the switch fluorescence ratio is 0.9736 ± 0.0065.
Next, AGGGGCGGTC: 1.03 ± 0.014; ATGGTGTGCG: 1.01 ± 0.025; TTATTGTTAG: 0.9784 ± 0.0027.
In the case of CGGTTGATCG it was 0.918 ± 0.036.
Next, TTGAGCTTGT: 1.02 ± 0.027; GCTGTACGCG: 1.03 ± 0.029; ATTTGGATGC: 1.01 ± 0.042.
For TTCTCTGGGG, the switch fluorescence ratio turned out to be 1.025 ± 0.0071.
In the case of TTTGACGGGT it was 1.02 ± 0.029; in that of AGGCTAAAG, 0.974 ± 0.01.
Next, GGATAGTGTT: 0.988 ± 0.016; CACATGCTGT: 0.995 ± 0.038.
In the case of AACGGATGAG it was 0.987 ± 0.038.
Regarding GAGACGGGGA, the switch fluorescence ratio amounted to 0.982 ± 0.021.
In the case of GTAAAGTTTT it was 0.991 ± 0.018; in that of TTTTCGTATT, 0.988 ± 0.012; in that of TGGGTTGAGT, 0.987 ± 0.017.
In the case of GAAGTGCGGT it was 0.98474 ± 0.00042; in that of TCCCCGTCTG, 1.14 ± 0.15.
In the case of AAGAACTATA it was 1.09 ± 0.023; in that of GGTAGTTAAA, 0.999 ± 0.024; in that of AGCGTCATGC, 1.04 ± 0.048.
Turning to GTTATCTCTT, the switch fluorescence ratio turned out to be 0.996 ± 0.033.
In the case of ATAGGAGTTG it was 1.033 ± 0.0089; in that of AGGATTTGAG, 1 ± 0.013; in that of ACGGAATGTT, 1.0819 ± 0.00046.
In the case of TCTCATTCAG it was 1.06 ± 0.14; in that of TTTAGAATGT, 0.994 ± 0.019.
Take TGGTAGGGGG: the switch fluorescence ratio was 0.9867 ± 0.0046.
In the case of TAGCCTATTT it was 0.975 ± 0.038; in that of GCGAGATGAT, 0.977 ± 0.022; in that of TCAAAGGTGT, 1.22 ± 0.14.
Next, TTTCTGCAGT: 1.27 ± 0.38.
Next, TAAAAAATAG: 1.043 ± 0.0086; GTGCAACTAC: 2.93 ± 0.32.
Consider AGGACGGGA, for which the switch fluorescence ratio turned out to be 1.03 ± 0.035.
Next, ACAGTTCTAC: 1.03 ± 0.031; TAAAGGTTTT: 0.974 ± 0.04; CAAATTGGGT: 0.996 ± 0.04.
As to GAGGTACTAG, the switch fluorescence ratio was 1.02 ± 0.0023.
For the sequence GTGGTGGTGG, the switch fluorescence ratio was 0.996 ± 0.023.
Regarding ACTCAAGGCT, the switch fluorescence ratio was 1.07 ± 0.049.
In the case of GCGGAGCATG it was 1.1036 ± 0.00099.
In the case of AAGACCGGGA it was 1.01 ± 0.04; in that of GTTTTGGGCT, 1.01 ± 0.032.
For GGGAGGGGTA, the switch fluorescence ratio amounted to 1 ± 0.029.
Next, ATATGCGTAT: 1.01 ± 0.02; TGCCTAAGTA: 1.02 ± 0.018.
In the case of TATGCACGGA it was 1.07 ± 0.09.
Consider GGTGAGGCTG, for which the switch fluorescence ratio worked out at 0.996 ± 0.015.
In the case of GATAATAGGT it was 0.993 ± 0.016.
Next, TTTAGACCAG: 1.01 ± 0.059; AGGCAAAGGC: 1.06 ± 0.036; ACCTGGGTAC: 1.03 ± 0.055.
Take GAGTACTCGT: the switch fluorescence ratio was determined as 1.03 ± 0.034.
In the case of GGGGTGGGAT it was 0.998 ± 0.016; in that of AAAAAACGCT, 1.08 ± 0.061; in that of GGGTCAGAGA, 0.987 ± 0.019.
Take AAAATTGTTT: the switch fluorescence ratio was found to be 1.01 ± 0.031.
Next, CATTACCGGA: 1.012 ± 0.0098; CAAGCGTGCG: 0.98 ± 0.012; GGAACCTCTG: 1.012 ± 0.0037.
In the case of ATGGGCCTGG it was 0.9792 ± 0.0094.
In the case of GAAATGGTAT it was 1 ± 0.011; in that of TTGAATATTT, 1 ± 0.014.
Turning to AGTTCTAGGA, the switch fluorescence ratio came to 0.953 ± 0.03.
In the case of ATTCGGGTTA it was 0.99 ± 0.013; in that of TGGGTTACTT, 0.995 ± 0.053.
In the case of GGTTGACGAG it was 0.986 ± 0.012.
Next, GCGGGGCCTT: 0.9811 ± 0.004.
For the sequence TCGAGTTGGT, the switch fluorescence ratio was 1.01 ± 0.0018.
Next, GGGGCTTGTG: 1.01 ± 0.028.
In the case of TAAATCGTGC it was 1.022 ± 0.0064; in that of TGGAATATGG, 1.04 ± 0.021.
Next, GGAGTTTGAG: 1 ± 0.0095.
In the case of TTACGGTGGA, the switch fluorescence ratio was 0.9963 ± 0.0033.
In the case of CGTTCAACGA it was 1 ± 0.029; in that of AGGAGTGGTA, 0.999 ± 0.013.
Next, GTTCTCAGAT: 0.982 ± 0.013; TGTGAGTGTG: 0.983 ± 0.015; TCAAGGGAAA: 1 ± 0.058.
Next, GGAGGGCATC: 0.972 ± 0.0046; AAGTTAATCT: 0.988 ± 0.019; AAAGAGTTGG: 0.99 ± 0.047.
On to GCTGGGGATT, for which the switch fluorescence ratio was determined as 0.987 ± 0.02.
In the case of ATTTGCATAC it was 2.62 ± 0.39.
In the case of AAAAGCGTTA it was 0.9962 ± 0.009; in that of GCTCGAATTA, 1.02 ± 0.016.
In the case of TTGGATGACA it was 1.02 ± 0.031.
AGTGCGGGCG: the switch fluorescence ratio worked out at 0.9895 ± 0.003.
Next, GTTCCGGTCG: 1.07 ± 0.098; GCGGGTCAAA: 0.9883 ± 0.0093; GGTAAAAGTT: 1.01 ± 0.022.
Next, AAATTGGGAG: 1.016 ± 0.0026.
In the case of TCGGGGAATT it was 0.989 ± 0.032; in that of ATCGTTTGTT, 1.04 ± 0.062.
ACGGGGCTAA: the switch fluorescence ratio came to 1.12 ± 0.15.
With CTGTATGGTA, the switch fluorescence ratio came to 1.04 ± 0.045.
On to CCCTCTATTC, for which the switch fluorescence ratio is 1.06 ± 0.03.
In the case of TGTTTATTAG it was 0.986 ± 0.01; in that of AAGTAGTTCG, 0.9823 ± 0.0037; in that of TACTTGCGGA, 1.03 ± 0.042.
Next, GGGTACGGAA: 1.106 ± 0.01; TAAGGTTATG: 0.973 ± 0.017.
Next, AGTAATGAGG: 0.985 ± 0.035; ACCGCTGGTC: 1.13 ± 0.056.
For TCCAGATTTT, the switch fluorescence ratio amounted to 1 ± 0.012.
In the case of GGATGTTTTT it was 1.03 ± 0.026.
Next, GATGATGGAG: 1.02 ± 0.011.
Next, GTTGGGAGCC: 0.99 ± 0.01.
In the case of TCATTTATTT, the switch fluorescence ratio came out at 0.98 ± 0.015.
In the case of GGATGCTGTG it was 0.991 ± 0.013.
